This passage reports ratio to parent results from publication PMC12363165 (2025).

To fix the notation:
B1: Vpu with LgBiT fused to its C-terminus (pBiT1.1-C-vpu) [HIV-1] / RBM10 fused to SmBiT (pBiT2.1-C-rbm10) [human] (parent complex)
chain 1: MQPIQIAIAALVVAIIIAIVVWSIVIIEYRKILRQRKIDRLIDRLIERAEDSGNESEGEISALVEMGVEMGHHAPWDIDDL
chain 2: MEYERRGGRGDRTGRYGATDRSQDDGGENRSRDHDYRDMDYRSYPREYGSQEGKHDYDDSSEEQSAEDSYEASPGSETQRRRRRRHRHSPTGPPGFPRDGDYRDQDYRTEQGEEEEEEEDEEEEEKASNIVMLRMLPQAATEDDIRGQLQSHGVQAREVRLMRNKSSGQSRGFAFVEFSHLQDATRWMEANQHSLNILGQKVSMHYSDPKPKINEDWLCNKCGVQNFKRREKCFKCGVPKSEAEQKLPLGTRLDQQTLPLGGRELSQGLLPLPQPYQAQGVLASQALSQGSEPSSENANDTIILRNLNPHSTMDSILGALAPYAVLSSSNVRVIKDKQTQLNRGFAFIQLSTIVEAAQLLQILQALHPPLTIDGKTINVEFAKGSKRDMASNEGSRISAASVASTAIAAAQWAISQASQGGEGTWATSEEPPVDYSYYQQDEGYGNSQGTESSLYAHGYLKGTKGPGITGTKGDPTGAGPEASLEPGADSVSMQAFSRAQPGAAPGIYQQSAEASSSQGTAANSQSYTIMSPAVLKSELQSPTHPSSALPPATSPTAQESYSQYPVPDVSTYQYDETSGYYYDPQTGLYYDPNSQYYYNAQSQQYLYWDGERRTYVPALEQSADGHKETGAPSKEGKEKKEKHKTKTAQQIAKDMERWARSLNKQKENFKNSFQPISSLRDDERRESATADAGYAILEKKGALAERQHTSMDLPKLASDDRPSPPRGLVAAYSGESDSEEEQERGGPEREEKLTDWQKLACLLCRRQFPSKEALIRHQQLSGLHKQNLEIHRRAHLSENELEALEKNDMEQMKYRDRAAERREKYGIPEPPEPKRRKYGGISTASVDFEQPTRDGLGSDNIGSRMLQAMGWKEGSGLGRKKQGIVTPIEAQTRVRGSGLGARGSSYGVTSTESYKETLHKTMVTRFNEAQ

The variants in this experiment derive from B1. The experiment is described as follows: NanoBiT luciferase complementation reporter assay; HEK293T cells, co-transfection, read after 2 days; parent: 1; read off a plot.
As for chain 1 H73A, the ratio to parent was about 0.98.

Take chain 1 R34A: the ratio to parent was about 0.63.

In the case of chain 1 D77A, the ratio to parent was about 0.6.

Turning to chain 1 V25A, the ratio to parent was about 0.41.

As for chain 1 I26A, the ratio to parent is about 0.56.
